Positions count from the first letter of the chain named.

The target of assay [1] is T1, His-tagged and Fc-tagged human ALK2 protein (Sino Biological) (Homo sapiens, UniProt Q04771).
T1 construct: activin receptor-like kinase 2 (ALK2), human; source: bought: Sino Biological Inc
The experiment in a line: SPR; BIAcore T200; anti-histidine antibody immobilised on a CM5 chip, His- and Fc-tagged ALK2 (10 μg/ml) captured; antibody 0.195-50 nM injected, single-cycle kinetics, 300 s association, 1800 s dissociation, 30 μl/min; bivalent analyte model; the methods speak of avidity. The conditions noted are these: both partners purified. A general note: In SPR one partner is held on a chip, and binding of the other changes the refractive index at the surface.

Assay [2] concerns the target T2, His-tagged and Fc-tagged mouse ALK2 protein (Sino Biological) (Mus musculus, UniProt P37172).
T2 construct: activin receptor-like kinase 2 (ALK2), mouse, extracellular domain; also called 6x His-tagged mouse ALK2 ECD fused to human IgG Fc; source: bought: Sino Biological Inc
The description is as above. The conditions noted are these: both partners purified.

In the next assay the target is V5-tagged mouse ALK2 (mouse, UniProt P37172). The experiment in a line: cell-based or functional assay.
Assay [3] deals with T3, His-tagged and Fc-tagged mouse ALK2 protein (Sino Biological) (mouse, UniProt P37172 21-123).
T3 chain: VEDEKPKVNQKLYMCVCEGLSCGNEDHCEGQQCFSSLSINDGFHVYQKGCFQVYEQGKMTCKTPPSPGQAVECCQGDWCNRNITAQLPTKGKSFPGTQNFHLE
As to the kind of experiment: SPR.

Assay [4] addresses T4, His-tagged and Fc-tagged human ALK2 protein (Sino Biological) (human, UniProt Q04771 21-123).
T4 chain: T3 chain with V1M, Q10P
The experiment in a line: SPR.

Sequence of V5-tagged mouse ALK2 (P37172 21-509): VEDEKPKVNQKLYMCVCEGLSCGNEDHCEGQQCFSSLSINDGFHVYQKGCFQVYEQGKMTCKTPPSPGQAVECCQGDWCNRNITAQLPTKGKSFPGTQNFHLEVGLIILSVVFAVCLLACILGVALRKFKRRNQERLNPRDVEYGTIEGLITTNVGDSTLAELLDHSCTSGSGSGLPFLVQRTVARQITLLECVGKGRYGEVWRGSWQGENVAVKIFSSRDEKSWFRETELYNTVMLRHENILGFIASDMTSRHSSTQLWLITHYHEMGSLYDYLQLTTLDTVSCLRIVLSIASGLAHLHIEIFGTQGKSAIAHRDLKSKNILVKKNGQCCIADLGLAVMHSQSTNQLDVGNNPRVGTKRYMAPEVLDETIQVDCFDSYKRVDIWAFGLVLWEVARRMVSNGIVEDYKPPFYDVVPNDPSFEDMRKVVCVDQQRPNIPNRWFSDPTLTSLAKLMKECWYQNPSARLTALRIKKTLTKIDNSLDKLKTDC

B1: Rm0443, rat anti-ALK2 monoclonal antibody clone #0443 (antibody, V domains shown)
VH: EVQLVESGGGLVQPGRSLKLSCLASGSTFSNYGMKWIRQAPGKGLEWVASISRSSTYIYYADTVKGRFTISRDNARNTLYLQMTSLRSEDTALYYCAAAISTPFYWYFDFWGPGTVVTVSS
VL: EIVLTQSPTTMAASPGEKVTLNCLASSSVSYMTWYQQKSGASPKLWIYGTSNLASGVPNRFSGSGSGTSYSLAISSMEAEDVATYYCLHLTSYPPYTFGAGTKLELK
notes: variable region as in the heavy chain of the chimeric Fab m2 (PDB 7YRU); variable region as in the light chain of the chimeric Fab m2 (PDB 7YRU); Whole rat IgG from the hybridoma; PDB 7YRU holds the rat variable regions on human IgG1 kappa constant regions; source: rat hybridoma, purified from serum-free conditioned medium (protein G column)
The term koff denotes the rate constant with which the complex falls apart. Low values mean slow dissociation, high ones fast dissociation. Consider B1, for which the Kd was 5.6 nM in assay [1] and 5.1 nM in assay [2]. Besides, the “IC50 of Rm0443 against ALP activity induced by 300 ng/ml BMP7 in C2C12 cells (endogenous ALK2), day 3” value in the assay with V5-tagged mouse ALK2 turned out to be 0.017 µg/mL. Moreover, the “IC50 of Rm0443 against BMP-specific luciferase reporter activity induced by 300 ng/ml BMP7 in C2C12 cells (endogenous ALK2), overnight” value with V5-tagged mouse ALK2 was 0.216 µg/mL. Moreover, the results for the koff in assay [3] and in assay [4] were 0.00563 s⁻¹ and 0.00576 s⁻¹, respectively.

(Values after publication PMC10212922, “A blocking monoclonal antibody reveals dimerization of intracellular domains of ALK2 associated with genetic disorders” (Nature Communications, 2023).)
